{
  "source": "paper doi:10.1101/2020.12.18.423415",
  "target": "SARS-CoV-2 Spike protein (S protein) (SARS-CoV-2) (UniProt P0DTC2)",
  "experiment": "ELISA",
  "data": [
    {"substance": "recombinant fragment of human surfactant protein D (rfhSP-D) (from UniProt P35247 201-375) (domain or fragment)", "values": [
      {"measurement": "percent decrease of S protein-hACE-2 binding (rfhSP-D increased 5-fold)", "value": 50, "unit": "%"}
    ]}
  ]
}
